Measurements taken from US20150023971A1.

Assays:
[1] = biological target: T1, recombinant his-S-tagged pro-domain of human BDNF (residues Ala1-Arg110), from pET-30 Xa/LIC, E. coli (human) (UniProt P23560); test: SPR (Biacore 2000), 390 nM Sortilin over immobilised pro-domain (˜300 fmol/mm2)
T1 sequence: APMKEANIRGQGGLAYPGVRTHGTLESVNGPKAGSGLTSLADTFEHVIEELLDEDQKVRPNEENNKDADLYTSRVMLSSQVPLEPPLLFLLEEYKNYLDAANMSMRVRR

[2] = biological target: purified human Sortilin extracellular domain (produced in stably transfected CHO cells) (human) (UniProt Q99523); test: SPR (Biacore), 25-500 nM propeptide over immobilised Sortilin extracellular domain
[3] = biological target: purified human Sortilin extracellular domain (produced in stably transfected CHO cells) (human) (UniProt Q99523); test: SPR (Biacore) competition, inhibitor prebound, then coinjected with 200 nM proNGF over immobilised Sortilin
[4] = biological target: his-tagged sortilin luminal domain, mutant F174A (human) (UniProt Q99523); test: SPR (Biacore), mutant immobilised on CM5, GST-pro-dom-NGF 10-50 nM, 1:1 fit
[5] = biological target: his-tagged sortilin luminal domain, mutant R160A (human) (UniProt Q99523); test: as above
[6] = biological target: his-tagged sortilin luminal domain, mutant R163A (human) (UniProt Q99523); test: as above
[7] = biological target: his-tagged sortilin luminal domain, mutant F170A (human) (UniProt Q99523); test: as above
[8] = biological target: his-tagged sortilin luminal domain, mutant K172A (human) (UniProt Q99523); test: as above
[9] = biological target: his-tagged sortilin luminal domain, mutant R166A (human) (UniProt Q99523); test: as above
[10] = biological target: his-tagged sortilin luminal domain, mutant F165A (human) (UniProt Q99523); test: as above
Sequence of his-tagged sortilin luminal domain, mutant F165A (human) (Q99523 other isoform, or with tags, fused parts or gaps F165A F165A limits assumed): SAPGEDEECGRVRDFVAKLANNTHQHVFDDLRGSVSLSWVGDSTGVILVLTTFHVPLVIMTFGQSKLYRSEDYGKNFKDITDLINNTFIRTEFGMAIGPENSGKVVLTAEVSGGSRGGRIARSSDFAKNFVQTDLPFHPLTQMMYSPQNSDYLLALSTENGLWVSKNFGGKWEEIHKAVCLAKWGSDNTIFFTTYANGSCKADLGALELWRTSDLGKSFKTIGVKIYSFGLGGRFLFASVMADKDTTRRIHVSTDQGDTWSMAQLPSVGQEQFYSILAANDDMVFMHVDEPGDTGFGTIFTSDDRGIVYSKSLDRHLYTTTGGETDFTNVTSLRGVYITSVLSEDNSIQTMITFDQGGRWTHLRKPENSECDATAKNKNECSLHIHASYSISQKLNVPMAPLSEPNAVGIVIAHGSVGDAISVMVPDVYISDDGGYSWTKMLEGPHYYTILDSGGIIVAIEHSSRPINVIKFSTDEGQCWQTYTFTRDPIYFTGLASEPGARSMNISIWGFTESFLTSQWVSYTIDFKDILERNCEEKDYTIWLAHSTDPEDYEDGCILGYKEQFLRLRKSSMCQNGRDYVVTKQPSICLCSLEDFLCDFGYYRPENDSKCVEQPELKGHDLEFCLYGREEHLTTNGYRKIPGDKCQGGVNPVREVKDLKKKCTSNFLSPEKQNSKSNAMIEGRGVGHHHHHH

Sequence of purified human Sortilin extracellular domain (produced in stably transfected CHO cells) (human) (Q99523 78-755 V650M limits assumed): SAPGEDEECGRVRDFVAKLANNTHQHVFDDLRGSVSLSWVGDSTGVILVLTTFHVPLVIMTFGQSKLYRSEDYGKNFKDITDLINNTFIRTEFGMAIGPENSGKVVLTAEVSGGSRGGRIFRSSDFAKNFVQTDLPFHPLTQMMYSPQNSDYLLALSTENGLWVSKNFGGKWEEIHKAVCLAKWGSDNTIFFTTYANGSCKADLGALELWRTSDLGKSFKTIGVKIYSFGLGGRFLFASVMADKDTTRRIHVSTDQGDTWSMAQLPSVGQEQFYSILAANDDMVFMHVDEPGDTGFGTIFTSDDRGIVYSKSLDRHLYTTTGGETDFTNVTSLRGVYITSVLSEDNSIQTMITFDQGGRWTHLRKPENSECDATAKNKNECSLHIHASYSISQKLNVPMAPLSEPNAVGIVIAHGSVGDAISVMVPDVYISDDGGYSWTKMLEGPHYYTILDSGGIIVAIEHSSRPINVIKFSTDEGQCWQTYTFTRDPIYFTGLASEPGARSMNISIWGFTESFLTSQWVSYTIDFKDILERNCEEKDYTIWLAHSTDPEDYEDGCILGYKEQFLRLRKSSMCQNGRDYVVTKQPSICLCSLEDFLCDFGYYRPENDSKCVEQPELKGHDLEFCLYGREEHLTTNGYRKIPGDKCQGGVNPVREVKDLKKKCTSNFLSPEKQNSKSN
Sequence of his-tagged sortilin luminal domain, mutant R160A (human) (Q99523 other isoform, or with tags, fused parts or gaps R160A R160A limits assumed): as the sequence (Q99523 other isoform, or with tags, fused parts or gaps F165A F165A limits assumed) above, with R116A, A121F counted along it
Sequence of his-tagged sortilin luminal domain, mutant K172A (human) (Q99523 other isoform, or with tags, fused parts or gaps K172A K172A limits assumed): as the sequence (Q99523 other isoform, or with tags, fused parts or gaps F165A F165A limits assumed) above, with A121F, K128A counted along it
Sequence of his-tagged sortilin luminal domain, mutant F170A (human) (Q99523 other isoform, or with tags, fused parts or gaps F170A F170A limits assumed): as the sequence (Q99523 other isoform, or with tags, fused parts or gaps F165A F165A limits assumed) above, with A121F, F126A counted along it
Sequence of his-tagged sortilin luminal domain, mutant R166A (human) (Q99523 other isoform, or with tags, fused parts or gaps R166A R166A limits assumed): as the sequence (Q99523 other isoform, or with tags, fused parts or gaps F165A F165A limits assumed) above, with A121F, R122A counted along it
Sequence of recombinant human Sortilin ectodomain with C-terminal poly-histidine tag (pCEP-Pu, EBNA293/HEK293 cells), ending at Ser725 (Q99523 other isoform, or with tags, fused parts or gaps limits assumed): as the sequence (Q99523 other isoform, or with tags, fused parts or gaps F165A F165A limits assumed) above, with A121F counted along it
Sequence of his-tagged sortilin luminal domain, mutant F174A (human) (Q99523 other isoform, or with tags, fused parts or gaps F174A F174A limits assumed): as the sequence (Q99523 other isoform, or with tags, fused parts or gaps F165A F165A limits assumed) above, with A121F, F130A counted along it
Sequence of his-tagged sortilin luminal domain, mutant R163A (human) (Q99523 other isoform, or with tags, fused parts or gaps R163A R163A limits assumed): as the sequence (Q99523 other isoform, or with tags, fused parts or gaps F165A F165A limits assumed) above, with R119A, A121F counted along it

Substance “recombinant human Sortilin ectodomain with C-terminal poly-histidine tag (pCEP-Pu, EBNA293/HEK293 cells), ending at Ser725 (from UniProt Q99523 78-755) (receptor)” has a response (RU) [1] of 300 RU.

With “human NGF-propeptide expressed in E. coli” the Kd [2] was 8 nM and the percent inhibition of proNGF binding to Sortilin [3] was 85%.

“GST-NGF-pro-domain fusion protein (Nykjaer et al., Nature 2004) (from UniProt P01138 19-121)” was tested, and the Kd [4] was 4.27 nM, the Kd [5] was 1.89 nM and the kon [5] was 147000 M⁻¹ s⁻¹. The Kd [6] was 2.7 nM, the Kd [7] was 5.59 nM and the Kd [8] was 3.91 nM. The Kd [9] was 4.38 nM and the Kd [10] was 3.86 nM.
